Data published in paper PMC2696619.
Where two headings read alike, the source gives them in different places.

Columns and labels:
[1] = target: human C3b (human) (UniProt P01024); experiment: radioligand binding
[2] = target: human C3b (human) (UniProt P01024); experiment: radioligand binding; remark: listed apart in the source

IC50 [1]: 200 nM
IC50 [2]: 1000 nM
Substance: wildtype rH19-20 (recombinant domains 19-20 of factor H) (from UniProt P08603 1107-1231) (domain or fragment)
